Data: patent US20210369842A1 (Genmab, published 2021)

B1: b12 (antibody, V domains shown)
VH: QVQLVQSGAEVKKPGASVKVSCQASGYRFSNFVIHWVRQAPGQRFEWMGWINPYNGNKEFSAKFQDRVTFTADTSANTAYMELRSLRSADTAVYYCARVGPYSWDDSPQDNYYMDVWGKGTTVIVSS
VL: EIVLTQSPGTLSLSPGERATFSCRSSHSIRSRRVAWYQHKPGQAPRLVIHGVSNRASGISDRFSGSGSGTDFTLTITRVEPEDFALYYCQVYGASSYTFGQGTKLERK
notes: also called monospecific, bivalent b12 antibody; gp120 specific antibody
B2: PD-L1-547-FEAR (antibody, human IgG1, lambda, V domains shown)
VH: EVQLLEPGGGLVQPGGSLRLSCEASGSTFSTYAMSWVRQAPGKGLEWVSGFSGSGGFTFYADSVRGRFTISRDSSKNTLFLQMSSLRAEDTAVYYCAIPARGYNYGSFQHWGQGTLVTVSS
VL: SYVLTQPPSVSVAPGQTARITCGGNNIGSKSVHWYQQKPGQAPVLVVYDDNDRPSGLPERFSGSNSGNTATLTISRVEAGDEADYYCQVWDSSSDHVVFGGGTKLTVLG
notes: Human IgG1 lambda with L234F, L235E, D265A and K409R (FEAR)
B3: PD-L1-547-FEALxCD137-009-HC7LC2-FEAR (bispecific antibody, human IgG1, kappa, lambda)
heavy 1: EVQLLEPGGGLVQPGGSLRLSCEASGSTFSTYAMSWVRQAPGKGLEWVSGFSGSGGFTFYADSVRGRFTISRDSSKNTLFLQMSSLRAEDTAVYYCAIPARGYNYGSFQHWGQGTLVTVSSASTKGPSVFPLAPSSKSTSGGTAALGCLVKDYFPEPVTVSWNSGALTSGVHTFPAVLQSSGLYSLSSVVTVPSSSLGTQTYICNVNHKPSNTKVDKRVEPKSCDKTHTCPPCPAPEFEGGPSVFLFPPKPKDTLMISRTPEVTCVVVAVSHEDPEVKFNWYVDGVEVHNAKTKPREEQYNSTYRVVSVLTVLHQDWLNGKEYKCKVSNKALPAPIEKTISKAKGQPREPQVYTLPPSREEMTKNQVSLTCLVKGFYPSDIAVEWESNGQPENNYKTTPPVLDSDGSFLLYSKLTVDKSRWQQGNVFSCSVMHEALHNHYTQKSLSLSPGK
light 1: SYVLTQPPSVSVAPGQTARITCGGNNIGSKSVHWYQQKPGQAPVLVVYDDNDRPSGLPERFSGSNSGNTATLTISRVEAGDEADYYCQVWDSSSDHVVFGGGTKLTVLGQPKAAPSVTLFPPSSEELQANKATLVCLISDFYPGAVTVAWKADSSPVKAGVETTTPSKQSNNKYAASSYLSLTPEQWKSHRSYSCQVTHEGSTVEKTVAPTECS
heavy 2: EVQLVESGGGLVQPGRSLRLSCTASGFSLNDYWMSWVRQAPGKGLEWVGYIDVGGSLYYAASVKGRFTISRDDSKSIAYLQMNSLKTEDTAVYYCARGGLTYGFDLWGQGTLVTVSSASTKGPSVFPLAPSSKSTSGGTAALGCLVKDYFPEPVTVSWNSGALTSGVHTFPAVLQSSGLYSLSSVVTVPSSSLGTQTYICNVNHKPSNTKVDKRVEPKSCDKTHTCPPCPAPEFEGGPSVFLFPPKPKDTLMISRTPEVTCVVVAVSHEDPEVKFNWYVDGVEVHNAKTKPREEQYNSTYRVVSVLTVLHQDWLNGKEYKCKVSNKALPAPIEKTISKAKGQPREPQVYTLPPSREEMTKNQVSLTCLVKGFYPSDIAVEWESNGQPENNYKTTPPVLDSDGSFFLYSRLTVDKSRWQQGNVFSCSVMHEALHNHYTQKSLSLSPGK
light 2: DIVMTQSPSSLSASVGDRVTITCQASEDISSYLAWYQQKPGKAPKRLIYGASDLASGVPSRFSASGSGTDYTFTISSLQPEDIATYYCHYYATISGLGVAFGGGTKVEIKRTVAAPSVFIFPPSDEQLKSGTASVVCLLNNFYPREAKVQWKVDNALQSGNSQESVTEQDSKDSTYSLSSTLTLSKADYEKHKVYACEVTHQGLSSPVTKSFNRGEC
B4: b12-FEALxPD-L1-547-FEAR (bispecific antibody)
heavy 1: QVQLVQSGAEVKKPGASVKVSCQASGYRFSNFVIHWVRQAPGQRFEWMGWINPYNGNKEFSAKFQDRVTFTADTSANTAYMELRSLRSADTAVYYCARVGPYSWDDSPQDNYYMDVWGKGTTVIVSSASTKGPSVFPLAPSSKSTSGGTAALGCLVKDYFPEPVTVSWNSGALTSGVHTFPAVLQSSGLYSLSSVVTVPSSSLGTQTYICNVNHKPSNTKVDKRVEPKSCDKTHTCPPCPAPEFEGGPSVFLFPPKPKDTLMISRTPEVTCVVVAVSHEDPEVKFNWYVDGVEVHNAKTKPREEQYNSTYRVVSVLTVLHQDWLNGKEYKCKVSNKALPAPIEKTISKAKGQPREPQVYTLPPSREEMTKNQVSLTCLVKGFYPSDIAVEWESNGQPENNYKTTPPVLDSDGSFLLYSKLTVDKSRWQQGNVFSCSVMHEALHNHYTQKSLSLSPGK
light 1: EIVLTQSPGTLSLSPGERATFSCRSSHSIRSRRVAWYQHKPGQAPRLVIHGVSNRASGISDRFSGSGSGTDFTLTITRVEPEDFALYYCQVYGASSYTFGQGTKLERKRTVAAPSVFIFPPSDEQLKSGTASVVCLLNNFYPREAKVQWKVDNALQSGNSQESVTEQDSKDSTYSLSSTLTLSKADYEKHKVYACEVTHQGLSSPVTKSFNRGEC
heavy 2: EVQLLEPGGGLVQPGGSLRLSCEASGSTFSTYAMSWVRQAPGKGLEWVSGFSGSGGFTFYADSVRGRFTISRDSSKNTLFLQMSSLRAEDTAVYYCAIPARGYNYGSFQHWGQGTLVTVSSASTKGPSVFPLAPSSKSTSGGTAALGCLVKDYFPEPVTVSWNSGALTSGVHTFPAVLQSSGLYSLSSVVTVPSSSLGTQTYICNVNHKPSNTKVDKRVEPKSCDKTHTCPPCPAPEFEGGPSVFLFPPKPKDTLMISRTPEVTCVVVAVSHEDPEVKFNWYVDGVEVHNAKTKPREEQYNSTYRVVSVLTVLHQDWLNGKEYKCKVSNKALPAPIEKTISKAKGQPREPQVYTLPPSREEMTKNQVSLTCLVKGFYPSDIAVEWESNGQPENNYKTTPPVLDSDGSFFLYSRLTVDKSRWQQGNVFSCSVMHEALHNHYTQKSLSLSPGK
light 2: SYVLTQPPSVSVAPGQTARITCGGNNIGSKSVHWYQQKPGQAPVLVVYDDNDRPSGLPERFSGSNSGNTATLTISRVEAGDEADYYCQVWDSSSDHVVFGGGTKLTVLGQPKAAPSVTLFPPSSEELQANKATLVCLISDFYPGAVTVAWKADSSPVKAGVETTTPSKQSNNKYAASSYLSLTPEQWKSHRSYSCQVTHEGSTVEKTVAPTECS
notes: also called monovalent PD-L1 antibody; monovalent PD-L1-control antibody

Legend:
Human PD-L1 [1] = biological target: T1, Human PD-L1 (human, UniProt Q9NZQ7 19-290); test: flow cytometry on MDA-MB-231 cells, PE-conjugated goat anti-human IgG F(ab')2 as secondary
T1 construct: Amino acids 1-18 are stated as the predicted signal peptide; also called CD274; B7H1
Procedure: (§1) Cells (3-5×10⁴ cells/well) were incubated in polystyrene 96-well round-bottom plates (Greiner bio-one, cat. no. 650101) with serial dilutions of antibodies (range 0.0001 to 10 μg/mL in 5-fold dilution steps) in 50 μL PBS/0.1% BSA/0.02% azide (FACS buffer) at 4° C. for 30 min. After washing twice in FACS buffer, cells were incubated with secondary antibody at 4° C. for 30 min. As a secondary antibody, R-Phycoerythrin (PE)-conjugated goat-anti-human IgG F(ab′)₂ (Cat. no. 109-116-098, Jackson ImmunoResearch Laboratories, Inc., West Grove, Pa.) diluted 1:500 in 50 μL FACS buffer, was used for all experiments. Next, cells were washed twice in FACS buffer, re-suspended in 20 μL FACS buffer and analyzed on an iQue screener (Intellicyt Corporation, USA). Binding curves were analyzed using non-linear regression (sigmoidal dose-response with variable slope) using GraphPad Prism V75.04 software (GraphPad Software, San Diego, Calif., USA).

Human PD-L1 [2] = biological target: T1, Human PD-L1; test: flow cytometry on PC-3 cells, PE-conjugated goat anti-human IgG F(ab')2 as secondary
Procedure: as §1

Human PD-L1 [3] = biological target: T1, Human PD-L1; test: flow cytometry on SK-MES-1 cells, PE-conjugated goat anti-human IgG F(ab')2 as secondary
Procedure: as §1

Human CD137 = Human CD137 (human, UniProt Q07011 24-255); test: cell-based or functional assay
Human PD-L1 [4] = biological target: T1, Human PD-L1; test: cell-based or functional assay

T1 sequence (Q9NZQ7 19-290): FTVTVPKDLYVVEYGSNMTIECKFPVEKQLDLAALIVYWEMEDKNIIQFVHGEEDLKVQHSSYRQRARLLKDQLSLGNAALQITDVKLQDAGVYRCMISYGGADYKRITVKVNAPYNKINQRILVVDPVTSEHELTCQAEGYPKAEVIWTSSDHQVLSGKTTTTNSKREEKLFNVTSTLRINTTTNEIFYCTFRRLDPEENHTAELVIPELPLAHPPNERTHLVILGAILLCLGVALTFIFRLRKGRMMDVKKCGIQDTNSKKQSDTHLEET
Chain of Human CD137 (Q07011 24-255): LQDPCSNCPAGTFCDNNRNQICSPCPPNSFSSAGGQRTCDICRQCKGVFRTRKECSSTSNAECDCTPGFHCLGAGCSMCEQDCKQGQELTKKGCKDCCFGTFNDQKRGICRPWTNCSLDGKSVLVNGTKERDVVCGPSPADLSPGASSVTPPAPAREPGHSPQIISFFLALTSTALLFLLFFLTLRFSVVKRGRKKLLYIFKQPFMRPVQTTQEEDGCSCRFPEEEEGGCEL

Row | Binder | binding result (Human PD-L1 [1]) | EC50 (read off the curve) (Human PD-L1 [2]) | EC50 (read off the curve) (Human PD-L1 [3]) | EC50 (read off the curve) (Human PD-L1 [1]) | EC50 value, CD8+ T-cell expansion (donor 1, 0.03 µg/ml anti-CD3) (Human CD137) | EC50 value, CD8+ T-cell expansion (donor 2, 0.09 µg/ml anti-CD3) (Human CD137) | EC50 (read off the curve); fold induction in the PD-1/PD-L1 inhibition bioassay, blocked partner human PD-1 (Human PD-L1 [4])
1 | B1 | no binding (tested: 10 µg/mL) | – | – | – | – | – | –
2 | B2 | – | ~0.04 mg/L | ~0.1 mg/L | ~0.05 mg/L | – | – | –
3 | B3 | – | – | – | – | 0.0122 mg/L | 0.00689 mg/L | –
4 | B4 | – | ~0.05 mg/L | ~0.2 mg/L | ~0.06 mg/L | – | – | ~0.1 mg/L
